Experimental data taken from the nanobody polyreactivity screen of Harvey et al. (2022).

Assay: yeast display, Sf9 membrane polyspecificity reagent, FACS + sequencing; frameworks hold sequencing errors
Outline: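 A nanobody's polyreactivity label depends on the gate it was sorted from. Yeast display cells were stained with 10% biotinylated, detergent-solubilized Sf9 membrane reagent for 1 hour at 4 °C, enriched on streptavidin microbeads and sorted by FACS. The low and high (top ~1%) gates were set on anti-HA fluorescence for expression and streptavidin fluorescence for reagent binding.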

Row | Sequence | polyreactivity (PSR sort gate)
1 | QVQLVESGGGLVQAGGSLRLSSAASGSTYVGYTMGWYRQAPGKERELVAAITRRSGSTYYAVSVKGRFTISRDNAKNTVYLQLNSLKPEDTAVYYCAKDFSRYSRVAHTEHDYWGQGTQVTVSS | high polyreactivity
2 | QVQLVESGGGLVQAGGSLRLSCAASGLIFVKYAMGWYRQAPGKERELVADITSTGGSTYYADSVKGRFTISRDNAKNTVYLQMNSLKPEDTAVYYCATDYGYYDYWGQGTQVTVSS | low polyreactivity
3 | QVQLVESGGGLVQAGGSLRLSCAASGTSGYYAMGWNRQAPGKERELVAGISIGGSTNYADSVKGRFTISRDNAKNTVYLQMNSLKTEDTAVYYCAVDGYVAFSPDRNNYWGQVTQVTVSS | low polyreactivity
4 | QVQLVESGGGLVQAGGSLRLSCAASGRTFRSNAMGWYRQAPGKEREFVAAISSGGSTKYADSVKGRFTISRDNAKNTVYLQMNSLKPEDTAVYYCAAVSHSRYWGEGTQVTVSS | high polyreactivity
5 | QVQLVESGGGLVQAGGSLRLSCAASGITFTPYAMGWYRQAPGKERELVAAITSGGSTNYADSVKGRFTISRDNAKNTVYLQMNSLKPEDTAVYYCAAGRWPAPWYTRNYWGQGTQVTVSS | low polyreactivity
6 | QVQLVESGGGLVQAGGSLRLSCAASGRIFGTNAMGWYRQAHGKERELVADITSGGSTNYADSVKGRFTISRDNAKNTVYLQMNSLKPEDTAVSYCAADVIGDLPWYRDEYWGQGTQVTVSS | low polyreactivity
7 | QVQLVESGGGLVQAGGSLRLSCAASGRIFSGYAMGCYRQAPGKERELVAAITSRSGSTYYADSVKGRFTISRDNAKKTVYLQMNSLKPEDTAVYYCAAEYVRFYWYTSDYWGQGTQVTVSS | low polyreactivity
8 | QVQLGESGGGLVQAGGSLRLSCAASGRTLWFYAMGWYRQAPGKERELVAAISSGGSTNYGDSVKGRFTISRDNAKNTVYLQMNSLKPEDTAVYYCAKVGNIPYGTRYDSNRYDYWGQGTQVTVSS | low polyreactivity
9 | QVKLVESGGGLVQAGGSLRLSCAASGRIFLWYAMGWYRQEPGKERELVAAISSNGGSTRYAHSVKGRFTISRDNAKNTVYLQMNSLKPEDTAVYYCNADVHWNRYPYGGNGYGYWGQGTQVTVSS | low polyreactivity
10 | QVQLVESGGGLVQAGGSLRLSCAASGSIFTRYAMGWYRQAPGKERELVAAITKSGSRTYYADSVKGRFTISRDNAKNTVYLQMNSLKPEDTAVYYCAVKFYLPRTRGGYWGQGTQVTVSS | high polyreactivity
11 | QVQLVESGGGLVQAGGSLRLSCAASGRIFYANAMGWYRQAPGKERELVAAISWSGGSTYYADSVKGRFTISRDNAKNTVYLQMNSLKPEDTAVYYCNALGRSYRSRRYDYWGQGTQVTVSS | high polyreactivity
12 | QVQLVESGGGLVQAGGSLRLSCAASGIIFDTYTMGWTRHSPGKERELVAAITRRGSRTYYADSVKGRFTISRDNAKNTVYLQMNSLKREDTAVYYCNAVPRWSYVDEDSWGQGTQVTVSS | high polyreactivity
13 | QVQLVESGGGLVQAGGSLRISCAASGRIFYNNDMAWYRQAPGKERELVAAITVRGSITYYADSVKGRFTISRDNAKTTVYLHMNSLKPEDTAVYYCATEWVNRLYSWGQGTQVTVSS | low polyreactivity
14 | QVQLVESGGGLVQAGGSLRLSCAASGFTFQYYAMGWYIQAPGKERELVATITTSGGNTYYADSVKGRFTISRDNAKNTVYLQMNSLKPEDTAVYYCAARRYRASSRGYGYWGQGTQVTVSS | high polyreactivity
15 | QVQLVESGGGLVQAGGSLRLSCAASGRIFYGYARGWYRQAPGKDRELVAAIRWYGGNTYYADSVKGRFTISRDNAKNTVYLQMNSLKPEDTAVYYCNARTEYASSRYYYWGQGTQVTVSS | high polyreactivity
16 | QVQLVESGGGLVQAGGSLRLSCAASGSTFGSYAMVWYRQAPGKERELVADISSRGASTYYADSVKGRFTISRDNAKNTVYLQMNRLKPEDTAVYYCARDVYIWYGYGYFPEYEYWGQGTQVTVSS | low polyreactivity
17 | QVQLVESGGGLVQAGGSLRLSCAASGSIFPNYAMGWYRQAPGKERELVAAISSSGGRTYYADSVKGRFTISRDNAKNTVYLQMNCLKPEDTAVYYCAADTYTSAQHEKYDYWGQGTQVTVSS | low polyreactivity
18 | QVQLQESGGGLVQAGGSRRLSCAASGTIFTARFMGWYRQATGKERELVSTITDGGNTNHAESVKCRFTISRDNAKNTGSLQMNSLKPEYAAVYYCAAGEVDNDTLLYWGQGSQVTVSS | low polyreactivity
19 | QVQLVESGGGLVQAGGSLRLSCAASGRTFSGYAMGWYRQAPGKERELVAVITYSGGSTYYADSVKGRFTISRDNAKNTVYLQMNSLKPEDTAVYYCNADYVIFYQLVEYDYWGQGTQVTVSS | low polyreactivity
20 | QLQLVESGGGLVQAGGSLRLSCAASGFTFSGYAMGWYRQAPGKERELVAAITKRGGSTYYADSVKGRFTISRDNAKNTVYLQMNSLKPEDTAVYYCAARGYISRYDARANAVQGNYWGQGTQVTVSS | high polyreactivity
21 | QVQLVESGGVLVQAGGSLRLSCAASGSTFEYNVMGWYRPAPGKERELVAAITTGASTNYADSVKGRFTISRDNAKNTVYLQMNCLKPEDTAVYYCAARYWRVRHGSVPAYSGYDYWGLGTQVTVSS | low polyreactivity
22 | QVQLVESGGGLVQAGGSLRLSCAASGSTFNRNTMGWYRQAPGKERELVAAITSSGGRTYYADSVKGRFTISRDNAKNTVYLQVNSLKPEDTAVYYCANVIRVLIAGRFDSWGQGTHVTVSS | high polyreactivity

Row | Sequence | polyreactivity (PSR sort gate)
23 | QVQLVESWGGLVQAGGSLRLSCAASGFTFNANAMGWYRQAPGKERELVAAISLSGGRTYYADSVKGRFTISRDNEKNTVYLQMNSLKPVDTAVYYCAASPDGSFRRFSRVVSGDYWGQGTQVTVSS | high polyreactivity
24 | QVQLVESGGGLVQAGGSLRLSCAASGRTFRPYTMGWYRQAPGKERELVAAISASGGRTYYADSVKGRFTISRDNAKNTVYLQMNSLKPEDTAVYYCAARVRDSLVYGGWDDYWGQGTQVTVSS | high polyreactivity
25 | LVQLQERVGVLVQAGGRLRLNCAASGTISPGGYMGWYRQAPGKELELVASINVGGSTNYADSVKGRFTISRDNAKNTVYLQMNRLKPEDNAVYYCAVWGRNRLQLSYWGQGTQVTVSS | low polyreactivity
26 | QVKLLESGGGLLQAGGSLRLSCAASGLTFYPYAMAWYRQAPGKERELVATITWSGTTTYYADSVKGRFTISRDNAKNTVYVQMNSLKPEDTAVYYCAADLWEVVTPYVTIDDDYWGQGTQVTVSS | high polyreactivity
27 | QVQLVESGGGLVQAGGSLRLSCAASGSTFAGYVMGWYRQAPGKERELVAAISRSGGSTYYADSVKGRFTISRDNAKNTVYLQMNSLKPEDTAVYYCAARNSPGLPGDYWGQGTQVTVSS | high polyreactivity
28 | QVQLVESGGGLVQAGGSLRFSCAASGGTFFLNVMGWYRPAPGKERELVAAITNSAGSTYYADSVKGRFTISRDNAKNTVYLQMNSLKPEDTAVYYCATDWSKVAGYTSYDYWGQGTQVTVSS | low polyreactivity
29 | QVQLVESGGGLVQAGGSLRLSCAASGYTFYPYAMGWYRQAPGKERELVAAISYSGGRTYYADSVKGRFTISRDNAKNTVYLQMNSLKPEDTAVYYCAADSGRYRMYYWGQGTQVTVSS | high polyreactivity
30 | QVQLVESGGGLVQAGGSLRLSCAASGLTFLYYAMGWYRQAPGKEREFVAAIDISGGSTYYADSVKGRFTISRDNAKKTVYLQMYSLKPEDTAVYYCAVEPWYYLAGRSQYDYWGQGTQVTVSS | low polyreactivity
31 | QVQLVESGGGLVQAGGSLRLSCAASGNIFYKYDMGWYRQAPGKERELVATISSDANTKYADSLKGRFTISRDNAKNTVYLQMNSLKPEDTPVYYCNVKDPVVRGALRDPTEYDSWGQGTQVTVSS | low polyreactivity
32 | QVQLVESGGGLVQAGGSLRLSCAASGLTFVQNAMGWYRQAPGKERELVAAISSRGGSTYYADSVKGRFTISRDNAKNTVYLQMNSLKPEDTAVYYCNTRSITKYDYWRRGYGYWGQGTQVTVSS | high polyreactivity
33 | QVQLVESGGGLVQAGGSLRLSCAASGTTFPLYAMGWYRQAPGKERELVAAITSVGSTYYADSVKGRFTISRDNAKNTVYLQMNSLKPEDTAVYDCAAANYTYASRWYDYWGQGTQVTVSS | low polyreactivity
34 | QVQLVESGGGLVQAGGSLRLSCAASGSIFYWNAMGWYRQAPWKERELVASINWSGSTYYADSVKGSFTISRDNAKNTVYLQMNSLKPEDTAVYYCNTDPRVSDASADMEYWGQGTQVTVSS | high polyreactivity
35 | QVQLVESGGGLVQAGRSLRLSCAASGSTFDQYDMGWYRQAPGKERELVAAISQSGDRTYYADSVKARFTISRDYAKTTVYLQMNSLQPDDTAVYYCADDGVSQDYYYRYDYWGQCTQVTVSS | low polyreactivity
36 | QVQLVESGGGLVQAGGSLRLSCAASGSIFRVYTMGWYIQAPGKERELVAAISRSGGRTYYADSVKGRFTISRDNAKNTVYLQMNSLKPEDTAVYYCAARSSLYRAGYRYNSWGQGTQVTVSS | high polyreactivity
37 | QVQLVESGGGLVQAGGSLRLSCAASGRIFYGYVMGWYRQAPGKERELVAAISWSAGRTYYADSVKGRFTISRDNAKNTVYLQMNSLKPEDTAVYYCAARYFSLYVWSTFEYWGQGTQVTVSS | high polyreactivity
38 | QVQLVESGGGLVQAGGSLRLSCAASGSIFYHYVMGWYRQAPGKERELVAAISSSGRTYYADSVKGRFTISRDNAKNTVYLQMNSLKPEDTAVYYCAAYQKYYLRKYEYWGQGTQVTVSS | low polyreactivity
39 | QVQLVESGGGLVQAGGSLRLSCAASGRTFDYNAMGWYRQAPGKERELVAAISSSGGSTYYADSVKGRFTISRDNAKNTVYLQMNSLKPEDTAVYYCDKRRNLWGYEYDSWGQGTQVTVSS | high polyreactivity
40 | QVQLVESGRGLDQAGGSHRISCAGSARIFTIYAMGCYRQAPGKERELVAAISKSGGRTYYADSVKGRFTISRDNAKNTVYVQMNSLKPEDTAVYYCAARWRSWRYKYDYWGQGTQVTVSS | high polyreactivity
41 | QVQLVESGGGLVQAGGSLRLSCAASGSTFSFNAMGWYRQAPGKERELVAAISRSGGRTYYADSVKGRFTISRDNAKNTVYLQMNSLKPEDTAVYYCNKVWFQRSVQPVEYVYWGQGTQVTVSS | high polyreactivity
42 | QVQLEESGGGLVQAGGSLRLSCAASGSTFYLYDMGWYRQAPGKERELVATITSATSTTYADSVKGRFTISRDNATNTVYLQMNSLNPEHTAVYYCNATDVGIITVGYGHGGYYWGQGTQVTVSS | low polyreactivity
43 | QVQLVESGGGLVQAGGSLRLSCAASGRTFRYNGMGWYRQAPGKERELVAAITLRDGRTYYADSVKGRITISRDNPKNTVNIQMNSLIPEHTAVYYCALEYWVVNAQGNDYWGQGTQVSVSS | high polyreactivity
